Experimental data published in the supplement of paper PMC9732359.
± gives the uncertainty stated by the source.

Experiment: protein stability index of a GFP-peptide fusion (yeast GPS) (PSI 1-4); higher = more stable; sorted into four equal gates, so the index is relative within each strain
Method in brief: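 The protein stability index of a peptide was calculated by multiplying its read frequency in each gate by that gate's number and adding the products. The peptides were tiled 17-residue stretches of yeast proteins, fused downstream of GFP on a Cherry-expressing plasmid and carried in yeast as a pooled library. Mid-log cultures in leucine-free medium were sorted into four equal gates by GFP/Cherry ratio, and each gate's plasmids were PCR-amplified and Illumina-sequenced.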

Row | Sequence | protein stability index (doa10∆) | protein stability index (pdr5∆) | protein stability index (san1∆) | protein stability index (ubr1∆)
1 | FVKFLSKKGSLENNIRE [RPL10] | 3.32 ± 0.18 | 3.32 ± 0.16 | 3.11 ± 0.076 | 3.3 ± 0.057
2 | EYQIVYYNPQAGTKITI [RGR1] | 2.15 ± 0.13 | 2.1 ± 0.22 | 2.12 ± 0.13 | 2.45 ± 0.1
3 | PNFNVEIMQQKFPATNV [ECM29] | 2.25 ± 0.26 | 3 ± 0.2 | – | 2.86 ± 0.17
4 | IIGKTTPISPDEEELGQ [RPB2] | – | – | 2.81 ± 0.23 | 2.98 ± 0.29
5 | GIACAGKGLQSAIDVLD [RPN2] | 2.15 ± 0.068 | 2.52 ± 0.077 | 2.48 ± 0.1 | 2.75 ± 0.071
6 | DLSEKILNDIETLEHNP [BRR2] | 3.06 ± 0.055 | 3.21 ± 0.07 | 3.05 ± 0.055 | 3.13 ± 0.043
7 | STIDANFADKYDEVKKH [RPL8A] | 2.5 ± 0.12 | 3.08 ± 0.11 | 2.92 ± 0.081 | 2.93 ± 0.1
8 | QAIAKNNPQVVNAITVA [SNF5] | 1.85 ± 0.039 | 2.02 ± 0.043 | 1.63 ± 0.05 | 1.61 ± 0.036
9 | WLAAATATGIKVFSLDP [ASC1] | 2.58 ± 0.049 | 2.69 ± 0.045 | 2.81 ± 0.036 | 2.43 ± 0.029
10 | NVYVLPKNLLKKFIEIS [PRP8] | 1.93 ± 0.048 | 2.16 ± 0.045 | 2.06 ± 0.084 | 1.79 ± 0.048
11 | PGFQLPNRITLTDHRKE [SRB8] | 2.79 ± 0.079 | 2.98 ± 0.084 | 3.14 ± 0.069 | 3.22 ± 0.067
12 | EFLPLSLHILMIFWNDI [SRB8] | 1.36 ± 0.037 | 1.34 ± 0.04 | 1.35 ± 0.062 | 1.89 ± 0.036
13 | YLINGKRFKRKDNAKIS [SRP68] | 1.36 ± 0.075 | 1.58 ± 0.096 | 1.75 ± 0.12 | 1.63 ± 0.049
14 | NGKDNNNESNKNNNGDE [MED2] | 3.12 ± 0.053 | 3.17 ± 0.042 | 3.23 ± 0.034 | 3.15 ± 0.035
15 | SLYTSREPRVVSALQML [PUP1] | 2.66 ± 0.11 | 2.86 ± 0.065 | 3.03 ± 0.061 | 2.92 ± 0.048
16 | ENISLAEFILKNRSTIF [BRR2] | 2.77 ± 0.082 | 2.13 ± 0.082 | 1.67 ± 0.11 | 1.88 ± 0.054
17 | KKDIKIGTNDLFQVESA [SIR4] | 2.62 ± 0.082 | 3.22 ± 0.066 | 2.88 ± 0.07 | 2.33 ± 0.054
18 | VVSTDLESIQKTKEAVA [RPL4A] | 2.95 ± 0.072 | 3.12 ± 0.083 | 2.9 ± 0.08 | 2.82 ± 0.063
19 | AECISLICSIGLHSSEY [ECM29] | 1.98 ± 0.053 | 2.38 ± 0.051 | 2.2 ± 0.092 | 2.62 ± 0.048
20 | YKNHELLKLERKKTEAV [SNF2] | 3.14 ± 0.081 | 3.17 ± 0.074 | 3.08 ± 0.05 | 3.13 ± 0.064
21 | GNIVKEFENKFQNSYKP [YMR129W/POM152] | 3.35 ± 0.081 | 3.14 ± 0.13 | 3.37 ± 0.053 | 3.39 ± 0.098
22 | ALRGMFKDRFKDEPVQN [FAS2] | 3.56 ± 0.087 | 3.43 ± 0.085 | 3.35 ± 0.069 | 3.58 ± 0.11
23 | EFLEDTSRTIVRNVKGP [RPS28A] | – | – | 3.15 ± 0.29 | 3.03 ± 0.16
24 | FLFAPELGAINLHALSM [SWI1] | 1.84 ± 0.087 | 2.05 ± 0.08 | 2.49 ± 0.12 | 2.17 ± 0.056
25 | VAGAGAASGAAAAGGDA [RPP1B] | 3.09 ± 0.18 | 2.79 ± 0.092 | 3.22 ± 0.22 | 2.62 ± 0.078
26 | LSGVSNSMDMVDGMAKV [RGR1] | 3.48 ± 0.11 | 3.29 ± 0.11 | 3.44 ± 0.13 | 3.34 ± 0.064

Row | Sequence | protein stability index (doa10∆) | protein stability index (pdr5∆) | protein stability index (san1∆) | protein stability index (ubr1∆)
27 | IIELPNEKFEIELLSLD [SRB4] | 2.68 ± 0.056 | 2.99 ± 0.066 | 2.84 ± 0.052 | 2.68 ± 0.048
28 | MDFLNSMENTPKVPVSA [GAL11] | 2.42 ± 0.094 | 2.45 ± 0.11 | 2.1 ± 0.13 | 2.37 ± 0.065
29 | GSQFIVVSLKEGMFANA [SMC2] | – | 3.64 ± 0.24 | 3.44 ± 0.2 | 3.4 ± 0.057
30 | TVPNINFSGLNGGITNT [YOR098C/NUP1] | 3.45 ± 0.15 | 3.35 ± 0.22 | 3.74 ± 0.11 | 3.67 ± 0.12
31 | KDLKHIIYYKFNKNLGK [PRP8] | 1.14 ± 0.052 | 1.28 ± 0.053 | 1.32 ± 0.11 | 1.17 ± 0.061
32 | YGYWFDCRMGNFYIQYD [AAR2] | 2.51 ± 0.048 | 2.08 ± 0.048 | 1.93 ± 0.081 | 2.49 ± 0.034
33 | IMERIKSSLSLRDHALS [ITC1] | 2.24 ± 0.12 | 2.53 ± 0.053 | 2.7 ± 0.18 | 2.65 ± 0.06
34 | WGIPLIKELRSKGYPIQ [FAS1] | 2.38 ± 0.16 | 2.75 ± 0.091 | 1.69 ± 0.2 | 1.85 ± 0.071
35 | MAAEKILTPESQLKKSK [RPL7A] | 3.07 ± 0.11 | 3.28 ± 0.28 | 3.25 ± 0.2 | –
36 | NNDKREIQEELERFNKR [SMC1] | 2.49 ± 0.24 | 3.52 ± 0.13 | 3.4 ± 0.062 | 3.27 ± 0.068
37 | YNMYDAYGNWFNGLKPL [PRP8] | 2.93 ± 0.06 | 3.36 ± 0.093 | 2.9 ± 0.11 | 3.13 ± 0.048
38 | GTLGEIFIRCNNVLYIR [SMX3] | 3.57 ± 0.21 | 3.27 ± 0.1 | 2.9 ± 0.1 | 3.26 ± 0.1
39 | NLENMSIQDTSTVAKNV [YCG1] | 3.01 ± 0.052 | 3.12 ± 0.051 | 3.1 ± 0.04 | 3.21 ± 0.041
40 | NSISDFLGEQVNEPTKN [RPN1] | 3.32 ± 0.12 | 3.15 ± 0.13 | 3.34 ± 0.1 | 3.18 ± 0.091
41 | SLMSSQNKLFYITNADD [SIR3] | 2.77 ± 0.15 | 2.02 ± 0.12 | 3.07 ± 0.16 | 1.49 ± 0.095
42 | TEENIKGETNSEISIID [RRP45] | 2.96 ± 0.07 | 3.16 ± 0.064 | 3.3 ± 0.055 | 3.22 ± 0.053
43 | ALQNLSQLPITPMTRIS [YGL172W/NUP49] | 2.31 ± 0.13 | 1.95 ± 0.12 | 1.66 ± 0.21 | 1.92 ± 0.065
44 | AARKAEKAKSAGVQGSK [RPL24B] | 3.27 ± 0.087 | 3.11 ± 0.068 | 3.18 ± 0.065 | 3.29 ± 0.042
45 | GAIAYNQFKRIDTLLYL [RET1] | 1.4 ± 0.1 | 1.42 ± 0.1 | 1.48 ± 0.14 | 1.54 ± 0.066
46 | KKLLINKDASLALQRGA [DPB4] | 2.62 ± 0.094 | 2.75 ± 0.12 | 2.44 ± 0.17 | 3.06 ± 0.092
47 | IQKESTLHLVLRLRGGI [RPL40A] | 2.48 ± 0.11 | 2.6 ± 0.071 | 2.35 ± 0.1 | 2.54 ± 0.058
48 | NAVTAAAANNNIKPVEQ [GAL11] | 2.66 ± 0.064 | 2.66 ± 0.051 | 2.77 ± 0.062 | 2.84 ± 0.039
49 | WVNMLLISSSGPIKTPV [FAS2] | 1.87 ± 0.059 | 1.32 ± 0.051 | 1.23 ± 0.082 | 1.53 ± 0.047
50 | AIANTLLYLRLKNIYVS [PRP8] | 1.38 ± 0.048 | 1.53 ± 0.05 | 1.38 ± 0.084 | 1.18 ± 0.045
51 | PQKSSSKGFVFNSVQKK [YAR002W/NUP60] | 1.65 ± 0.088 | 1.4 ± 0.1 | 1.83 ± 0.14 | 1.18 ± 0.13
